Measured values reported in the supplement of paper PMC7877785.
± gives the uncertainty stated by the source.

Assay: self-splicing fitness, log relative to wild type (ln ratio); higher = more splicing; Tetrahymena group I intron in knt gene, E. coli kanamycin selection, DiMSum; sequences stand for … in CUCUCU…GGAGGGAAAAGUUAUCAGGCAUGCACCUGGUAGCUAGUCUUUAAACCAAUAGAUUGCAUCGGUUUAAAAGGCAAGACCGUCAAAUUGCGGGAAAGGGGUCAACAGCCGUUCAGUACCAAGUCUCAGGGGAAACUUUGAGAUGGCCUUGCAAAGGGUAUGGUAAUAAGCUGACGGACAUGGUCCUAACCACGCAGCCAAGUCCUAAGUCAACAGAUCUUCUGUUGAUAUGGAUGCAGUUCACAGACUAAAUGUCGGUCGGGGAAGAUGUAUUCUUCUCAUAAGAUAUAGUCGGACCUCUCCUUAAUGGGAGCUAGCGGAUGAAGUGAUGCAACACUGGAGCCGCUGGGAACUAAUUUGUAUGCGAAAGUAUAUUGAUUAGUUUUGGAGUACUCGUGGUCG
Outline: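 The eight P1ex-region nucleotides of an intron in the knt kanamycin-resistance gene on pET-22b(+) were all randomised and the library put into E. coli BL21(DE3). Six replicate transformations were grown overnight at 37°C or 30°C on LB agar with or without 25 μg/mL kanamycin, together with 100 μg/mL carbenicillin, 50 μM IPTG and 0.2% rhamnose. Colonies were pooled and amplicon-sequenced on an Illumina HiSeq 2500. Fitness from DiMSum is the error-weighted combination of wild-type-normalised replicate fold changes, kanamycin over none.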

Sequence | self-splicing fitness (ln) (30 °C) | self-splicing fitness (ln) (37 °C)
CUACAGCAAUAUUACGUUCG | -0.275 ± 0.063 | 0.0364 ± 0.083
CUACAGCAAUAUUACGUUGU | -3.66 ± 0.14 | -3.95 ± 0.21
CUACAGCAAUAUUACGUUUA | -3.39 ± 0.22 | -2.86 ± 0.19
CUACAGCAAUAUUACGUUUU | -4.17 ± 0.18 | -3.26 ± 0.22
CUAGAGCAAUAUUACGAAAA | -1.94 ± 0.44 | –
CUAGAGCAAUAUUACGAAGG | -1.22 ± 0.12 | -0.403 ± 0.15
CUAGAGCAAUAUUACGACCC | -1.62 ± 0.38 | –
CUAGAGCAAUAUUACGACCG | 0.13 ± 0.13 | 0.707 ± 0.18
CUAGAGCAAUAUUACGACGG | -0.119 ± 0.12 | 0.393 ± 0.17
CUAGAGCAAUAUUACGAGCG | 0.131 ± 0.1 | 0.74 ± 0.12
CUAGAGCAAUAUUACGCCUU | -3.42 ± 0.19 | -0.994 ± 0.24
CUAGAGCAAUAUUACGCGAA | -3.1 ± 0.38 | -2.09 ± 0.43
CUAGAGCAAUAUUACGCUAA | -3 ± 0.23 | -2.49 ± 0.25
CUAGAGCAAUAUUACGCUCU | -2.43 ± 0.28 | -2.8 ± 0.43
CUAGAGCAAUAUUACGGCCG | -0.252 ± 0.15 | 0.456 ± 0.27
CUAGAGCAAUAUUACGGCGU | -4.02 ± 0.26 | -0.833 ± 0.16
CUAGAGCAAUAUUACGGGGU | – | -2.6 ± 0.3
CUAGAGCAAUAUUACGGGUC | -4.31 ± 0.25 | -3.61 ± 0.39
CUAGAGCAAUAUUACGGUGA | -3.58 ± 0.16 | -1.46 ± 0.17
CUAGAGCAAUAUUACGUAGC | – | -1.49 ± 0.27
CUAGAGCAAUAUUACGUCAU | -4.42 ± 0.28 | -2.58 ± 0.18
CUAGAGCAAUAUUACGUCGU | -3.73 ± 0.42 | –
CUAGAGCAAUAUUACGUCUA | -1.15 ± 0.12 | -0.248 ± 0.18
CUAGAGCAAUAUUACGUGAG | -0.395 ± 0.074 | 0.0704 ± 0.095
CUAGAGCAAUAUUACGUUGU | -3.77 ± 0.2 | -2.5 ± 0.22
CUAGAGCAAUAUUACGUUUA | -4.4 ± 0.24 | -0.83 ± 0.17

Sequence | self-splicing fitness (ln) (30 °C) | self-splicing fitness (ln) (37 °C)
CUAUAGCAAUAUUACGACAC | -2.95 ± 0.34 | -1.88 ± 0.28
CUAUAGCAAUAUUACGAGGA | -3.62 ± 0.41 | -1.73 ± 0.31
CUAUAGCAAUAUUACGAGUG | -0.752 ± 0.071 | 0.361 ± 0.1
CUAUAGCAAUAUUACGAGUU | -3.04 ± 0.16 | -0.864 ± 0.18
CUAUAGCAAUAUUACGAUAA | -1.1 ± 0.11 | -0.839 ± 0.17
CUAUAGCAAUAUUACGCAAG | -3.11 ± 0.2 | -2.22 ± 0.18
CUAUAGCAAUAUUACGCAUU | -5.27 ± 0.38 | -2.95 ± 0.31
CUAUAGCAAUAUUACGCCGC | – | -2.27 ± 0.41
CUAUAGCAAUAUUACGCGGA | -1.13 ± 0.49 | –
CUAUAGCAAUAUUACGGAGG | -2.7 ± 0.17 | 0.224 ± 0.16
CUAUAGCAAUAUUACGGAUA | – | -2.24 ± 0.37
CUAUAGCAAUAUUACGGCAA | -3.31 ± 0.29 | -2.63 ± 0.45
CUAUAGCAAUAUUACGGCAU | -3.11 ± 0.25 | -2.37 ± 0.24
CUAUAGCAAUAUUACGGCUC | -3.46 ± 0.36 | -2.47 ± 0.48
CUAUAGCAAUAUUACGGGCU | -2.63 ± 0.19 | -3.38 ± 0.39
CUAUAGCAAUAUUACGUGCA | -3.24 ± 0.18 | -2.37 ± 0.19
CUAUAGCAAUAUUACGUGUU | -3.74 ± 0.16 | -3.15 ± 0.27
CUAUAGCAAUAUUACGUUCA | -2.87 ± 0.24 | -2.93 ± 0.35
CUCAAGCAAUAUUACGACCA | – | -0.985 ± 0.26
CUCAAGCAAUAUUACGAGCA | – | -2.49 ± 0.33
CUCAAGCAAUAUUACGAGUU | -3.34 ± 0.15 | -2.52 ± 0.15
CUCAAGCAAUAUUACGAUAU | -2.97 ± 0.14 | -1.61 ± 0.14
CUCAAGCAAUAUUACGCAGG | -2.99 ± 0.23 | -2.84 ± 0.31
CUCAAGCAAUAUUACGCAUC | -3.63 ± 0.23 | -2.3 ± 0.25
CUCAAGCAAUAUUACGGCAG | -2.26 ± 0.068 | -0.745 ± 0.092
